Laboratory results: patent US20250276080A1 (Amgen, published 2025)
Where no end group is shown, it is not given here. [ ]: non-standard residue; d: D form. Aib = CC(C)(N)C(=O)O

Key:
Assay in all cases: cell-based or functional assay
[1] = target: human glucagon-like peptide-1 receptor (human, UniProt P43220 24-463)
[2] = target: human glucagon receptor (human, UniProt P47871 26-477)
Target sequence in this assay (P47871 26-477): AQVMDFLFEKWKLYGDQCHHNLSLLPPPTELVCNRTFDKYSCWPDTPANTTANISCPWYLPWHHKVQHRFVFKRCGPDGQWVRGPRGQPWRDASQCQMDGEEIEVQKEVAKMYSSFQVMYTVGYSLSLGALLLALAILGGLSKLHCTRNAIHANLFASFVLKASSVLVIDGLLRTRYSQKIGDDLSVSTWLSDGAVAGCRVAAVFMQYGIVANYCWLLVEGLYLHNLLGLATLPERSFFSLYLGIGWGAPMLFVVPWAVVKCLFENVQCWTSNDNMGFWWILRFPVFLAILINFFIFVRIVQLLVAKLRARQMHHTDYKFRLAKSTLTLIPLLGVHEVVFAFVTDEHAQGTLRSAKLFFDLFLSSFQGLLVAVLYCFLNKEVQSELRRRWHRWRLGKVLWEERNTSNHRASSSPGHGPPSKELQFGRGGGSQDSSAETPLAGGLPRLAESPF

[3] = target: human glucagon receptor (human, UniProt P47871 26-477); remark: listed apart in the source
Target sequence in this assay (P47871 26-477): as above

[4] = target: human GLP-1 receptor (human, UniProt P43220 24-463)

hGLP-1R EC50 (pM) [1]	hGCGR EC50 (pM) [2]	hGCGR EC50 (pM) [3]	hGLP-1R EC50 (pM) [4]	Binder
		152 pM	6750 pM	Conjugate 91659: aGIPR 5G12 SEFL2 E384C-91255 (other, N-terminus conjugated to heavy-chain Cys; d-Ser2; K28 side chain amide-linked to linker C-terminus; C276 conjugated to linker) heavy: QVQLVESGGGVVQPGRSLRLSCTASGFTFSSYGIHWVRQAPGKGLEWVAVIWYDGSNKFHADSVKGRFTISRDNSKNTLYLQMNSLRAEDSAMYFCARGKVAGMPEAFEIWGQGTKVTVSSASTKGPSVFPLAPSSKSTSGGTAALGCLVKDYFPEPVTVSWNSGALTSGVHTFPAVLQSSGLYSLSSVVTVPSSSLGTQTYICNVNHKPSNTKVDKKVEPKSCDKTHTCPPCPAPELLGGPSVFLFPPKPKDTLMISRTPEVTCVVVDVSHEDPCVKFNWYVDGVEVHNAKTKPCEEQYGSTYRCVSVLTVLHQDWLNGKEYKCKVSNKALPAPIEKTISKAKGQPREPQVYTLPPSREEMTKNQVSLTCLVKGFYPSDIAVEWESNGQPENNYKTTPPVLDSDGSFFLYSKLTVDKSRWQQGNVFSCSVMHEALHNHYTQKSLSLSPGK light: DIQLTQSPSSLSASVGDRVTITCRASQTISRFLNWYQQKPGKAPELLIYVASSLQSGVPSRFSGSGSGTDFTLTISSLQPEDFATYYCQQSYSTLISFGQGTKLEITRTVAAPSVFIFPPSDEQLKSGTASVVCLLNNFYPREAKVQWKVDNALQSGNSQESVTEQDSKDSTYSLSSTLTLSKADYEKHKVYACEVTHQGLSSPVTKSFNRGEC peptide: HSQGTFTSDYSKYLDEKRAQEFVEWLLKS GGGGSGGGGSPAPAPAPAPAPASGG
		127 pM	289 pM	Conjugate 92868: aGIPR 5G12 SEFL2 E384C-92840 (other, N-terminus conjugated to heavy-chain Cys; d-Ser2; K28 side chain amide-linked to linker C-terminus; C276 conjugated to linker) heavy: QVQLVESGGGVVQPGRSLRLSCTASGFTFSSYGIHWVRQAPGKGLEWVAVIWYDGSNKFHADSVKGRFTISRDNSKNTLYLQMNSLRAEDSAMYFCARGKVAGMPEAFEIWGQGTKVTVSSASTKGPSVFPLAPSSKSTSGGTAALGCLVKDYFPEPVTVSWNSGALTSGVHTFPAVLQSSGLYSLSSVVTVPSSSLGTQTYICNVNHKPSNTKVDKKVEPKSCDKTHTCPPCPAPELLGGPSVFLFPPKPKDTLMISRTPEVTCVVVDVSHEDPCVKFNWYVDGVEVHNAKTKPCEEQYGSTYRCVSVLTVLHQDWLNGKEYKCKVSNKALPAPIEKTISKAKGQPREPQVYTLPPSREEMTKNQVSLTCLVKGFYPSDIAVEWESNGQPENNYKTTPPVLDSDGSFFLYSKLTVDKSRWQQGNVFSCSVMHEALHNHYTQKSLSLSPGK light: DIQLTQSPSSLSASVGDRVTITCRASQTISRFLNWYQQKPGKAPELLIYVASSLQSGVPSRFSGSGSGTDFTLTISSLQPEDFATYYCQQSYSTLISFGQGTKLEITRTVAAPSVFIFPPSDEQLKSGTASVVCLLNNFYPREAKVQWKVDNALQSGNSQESVTEQDSKDSTYSLSSTLTLSKADYEKHKVYACEVTHQGLSSPVTKSFNRGEC peptide: HSQGTFTSDYSKYLDEKRAREFVEWLLKS GGGGSGGGGSPAPAPAPAPAPASGG

Second part, the binder before the results:

Binder	hGLP-1R EC50 (pM) [1]	hGCGR EC50 (pM) [2]	hGCGR EC50 (pM) [3]	hGLP-1R EC50 (pM) [4]
Conjugate 25435: Fc SEFL2 T487C-15997 (other, not fully specified; also: thioether at chain A 139 to a chain's N-terminus via acetyl, bond at chain B 28 to a chain's C-terminus) chain 1: DKTHTCPPCPAPELLGGPSVFLFPPKPKDTLMISRTPEVTCVVVDVSHEDPEVKFNWYVDGVEVHNAKTKPCEEQYGSTYRCVSVLTVLHQDWLNGKEYKCKVSNKALPAPIEKTISKAKGQPREPQVYTLPPSREEMCKNQVSLTCLVKGFYPSDIAVEWESNGQPENNYKTTPPVLDSDGSFFLYSKLTVDKSRWQQGNVFSCSVMHEALHNHYTQKSLSLSPGK peptide: H[dS]QGTFTSDYSKYLD[Aib]RRAQDFVQWLLKT chain 2: Ac-GSPAPAPAPAPAPAPAPAPAPASGG	9770 pM	9.1 pM		
Conjugate 40741: aGIPR 5G12 SEFL2 E384C-39903 (other, N-term acetyl-thioether to Cys; d-Ser2; K28 eps-NH linked to linker C-term; C276 conjugated to linker) heavy: QVQLVESGGGVVQPGRSLRLSCTASGFTFSSYGIHWVRQAPGKGLEWVAVIWYDGSNKFHADSVKGRFTISRDNSKNTLYLQMNSLRAEDSAMYFCARGKVAGMPEAFEIWGQGTKVTVSSASTKGPSVFPLAPSSKSTSGGTAALGCLVKDYFPEPVTVSWNSGALTSGVHTFPAVLQSSGLYSLSSVVTVPSSSLGTQTYICNVNHKPSNTKVDKKVEPKSCDKTHTCPPCPAPELLGGPSVFLFPPKPKDTLMISRTPEVTCVVVDVSHEDPCVKFNWYVDGVEVHNAKTKPCEEQYGSTYRCVSVLTVLHQDWLNGKEYKCKVSNKALPAPIEKTISKAKGQPREPQVYTLPPSREEMTKNQVSLTCLVKGFYPSDIAVEWESNGQPENNYKTTPPVLDSDGSFFLYSKLTVDKSRWQQGNVFSCSVMHEALHNHYTQKSLSLSPGK light: DIQLTQSPSSLSASVGDRVTITCRASQTISRFLNWYQQKPGKAPELLIYVASSLQSGVPSRFSGSGSGTDFTLTISSLQPEDFATYYCQQSYSTLISFGQGTKLEITRTVAAPSVFIFPPSDEQLKSGTASVVCLLNNFYPREAKVQWKVDNALQSGNSQESVTEQDSKDSTYSLSSTLTLSKADYEKHKVYACEVTHQGLSSPVTKSFNRGEC peptide: HSQGTFTSDYSKYLDQRRAQDFVQWLLKT GSPAPAPAPAPAPAPAPAPAPASGG	8020 pM	40.9 pM		
Conjugate 88013: aGIPR 5G12 SEFL2 E384C-87021 (other, N-terminus conjugated to heavy-chain Cys; K28 side chain amide-linked to linker C-terminus; C276 conjugated to linker) heavy: QVQLVESGGGVVQPGRSLRLSCTASGFTFSSYGIHWVRQAPGKGLEWVAVIWYDGSNKFHADSVKGRFTISRDNSKNTLYLQMNSLRAEDSAMYFCARGKVAGMPEAFEIWGQGTKVTVSSASTKGPSVFPLAPSSKSTSGGTAALGCLVKDYFPEPVTVSWNSGALTSGVHTFPAVLQSSGLYSLSSVVTVPSSSLGTQTYICNVNHKPSNTKVDKKVEPKSCDKTHTCPPCPAPELLGGPSVFLFPPKPKDTLMISRTPEVTCVVVDVSHEDPCVKFNWYVDGVEVHNAKTKPCEEQYGSTYRCVSVLTVLHQDWLNGKEYKCKVSNKALPAPIEKTISKAKGQPREPQVYTLPPSREEMTKNQVSLTCLVKGFYPSDIAVEWESNGQPENNYKTTPPVLDSDGSFFLYSKLTVDKSRWQQGNVFSCSVMHEALHNHYTQKSLSLSPGK light: DIQLTQSPSSLSASVGDRVTITCRASQTISRFLNWYQQKPGKAPELLIYVASSLQSGVPSRFSGSGSGTDFTLTISSLQPEDFATYYCQQSYSTLISFGQGTKLEITRTVAAPSVFIFPPSDEQLKSGTASVVCLLNNFYPREAKVQWKVDNALQSGNSQESVTEQDSKDSTYSLSSTLTLSKADYEKHKVYACEVTHQGLSSPVTKSFNRGEC peptide: HSQGTFTSDYSKYLDAKRAQEFVEWLLKS GGGGSGGGGSPAPAPAPAPAPASGG			41.3 pM	
